Data published in FireProtDB (doi:10.1021/bi000849s).

Conditions: Homo sapiens, Thermal, DSC, reversible: yes, whole UniProt chain shown

B1: Lysozyme C wild type, P61626 (protein)
chain: MKALIVLGLVLLSVTVQGKVFERCELARTLKRLGMDGYRGISLANWMCLAKWESGYNTRATNYNAGDRSTDYGIFQINSRYWCNDGKTPGAVNACHLSCSALLQDNIADAVACAKRVVRDPQGIRAWVAWRNRCQNRDVRQYVQGCGV
- Tm (pH 2.2, glycine hydrochloride 0.05 M): 57.5 °C
- Tm (pH 2.3, glycine hydrochloride 0.05 M, KCl 0.2 M): 56.2 °C
- Tm (pH 4, sodium acetate 0.02 M): 80.1 °C
- Tm (pH 4.5, sodium acetate 0.02 M, KCl 0.2 M): 77.7 °C
